According to patent US20130165379A1 (AMYLIN PHARMACEUTICALS, published 2013):

Biological target: T1, Exendin-4 (Heloderma suspectum (Gila monster); …)
T1 construct: also called synthetic exendin-4
Test: displacement of radiolabeled GLP-1 from RINm5f plasma membranes

B1: GLP-1 receptor (plasma membrane preparation of rat insulinoma cell line RINm5f) (receptor)
chain: GPRPQGATVSLSETVQKWREYRHQCQRFLTEAPLLATGLFCNRTFDDYACWPDGPPGSFVNVSCPWYLPWASSVLQGHVYRFCTAEGIWLHKDNSSLPWRDLSECEESKQGERNSPEEQLLSLYIIYTVGYALSFSALVIASAILVSFRHLHCTRNYIHLNLFASFILRALSVFIKDAALKWMYSTAAQQHQWDGLLSYQDSLGCRLVFLLMQYCVAANYYWLLVEGVYLYTLLAFSVFSEQRIFKLYLSIGWGVPLLFVIPWGIVKYLYEDEGCWTRNSNMNYWLIIRLPILFAIGVNFLVFIRVICIVIAKLKANLMCKTDIKCRLAKSTLTLIPLLGTHEVIFAFVMDEHARGTLRFVKLFTELSFTSFQGFMVAVLYCFVNNEVQMEFRKSWERWRLERLNIQRDSSMKPLKCPTSSVSSGATVGSSVYAATCQNSCS
notes: whole, on cells; The receptor stood in a plasma membrane preparation of the cells, not on intact cells; also called GLP-1 receptors; RINm5f membranes
- binding result: binds
